Here are results for 4 molecules from patent publication US5981483, “Compositions comprising modulators of cytokines of the TGF-β superfamily” (Mount Sinai Hospital Corporation, dated 1999).

Bridges are numbered along the chain shown (N, C = ends). Where no end group is shown, it is not given here. Some results are limits rather than exact numbers.

The chains are these.
T1: adult human fetuin/α2-HS glycoprotein (human, UniProt P02765)
T1 sequence: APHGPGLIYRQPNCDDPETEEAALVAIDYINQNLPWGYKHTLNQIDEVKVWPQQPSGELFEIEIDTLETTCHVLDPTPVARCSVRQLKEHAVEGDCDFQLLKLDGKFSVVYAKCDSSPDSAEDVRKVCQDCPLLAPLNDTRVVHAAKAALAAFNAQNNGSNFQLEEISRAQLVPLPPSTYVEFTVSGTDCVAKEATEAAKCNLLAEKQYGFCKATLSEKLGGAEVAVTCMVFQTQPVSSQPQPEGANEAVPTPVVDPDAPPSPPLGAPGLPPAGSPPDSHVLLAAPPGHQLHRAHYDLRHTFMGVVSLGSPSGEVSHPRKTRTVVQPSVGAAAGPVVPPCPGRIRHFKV

B1: cyclized TRH1b peptide from TβRII (peptide)
peptide: CVAVWRKNDENITLETVC
modifications: disulfide 1-18 (inferred); also: exact limits not given here, terminal residues may be removed
B2: reduced and alkylated TRH1b peptide from TβRII (peptide)
peptide: CVAVWRKNDENITLETVCHD
modifications: also: Cys reduced and alkylated, agent not given here, exact limits not given here
B3: bovine fetuin (other)
chain: IPLDPVAGYKEPACDDPDTEQAALAAVDYINKHLPRGYKHTLNQIDSVKVWPRRPTGEVYDIEIDTLETTCHVLDPTPLANCSVRQQTQHAVEGDCDIHVLKQDGQFSVLFTKCDSSPDSAEDVRKLCPDCPLLAPLNDSRVVHAVEVALATFNAESNGSYLQLVEISRAQFVPLPVSVSVEFAVAATDCIAKEVVDPTKCNLLAEKQYGFCKGSVIQKALGGEDVRVTCTLFQTQPVIPQPQPDGAEAEAPSAVPDAAGPTPSAAGPPVASVVVGPSVVAVPLPLHRAHYDLRHTFSGVASVESSSGEAFHVGKTPIVGQPSIPGGPVRLCPGRIRYFKI
B4: recombinant human BMP-2 (ligand)
chain: QAKHKQRKRLKSSCKRHPLYVDFSDVGWNDWIVAPPGYHAFYCHGECPFPLADHLNSTNHAIVQTLVNSVNSKIPKACCVPTELSAISMLYLDENEKVVLKNYQDMVVEGCGCR

Assay [1] addresses B4. As to the kind of experiment: SPR (BIAcore); analyte over immobilized cytokine. On the procedure:
(§1) In this system, a purified protein serving as the ligand is covalently coupled to a carboxymethylated dextran surface, and binding molecules (i.e. the analyte) are passed in a fluid phase across the surface. Binding of the analyte to ligand causes a change in reflected light which is directly proportional to mass bound, and is measured in arbitrary response units (R.U.). Analyte-ligand binding is observed as both increasing response with time during the injection of analyte, and the difference in the position of the baseline before and after injection.
(§2) Data was analyzed using the BIA-evaluation software (Pharmacia Biosensor). The association rate constant, $kass$, was calculated by first plotting the change in response with time versus response (i.e. dR/dT vs R). When the slope of the line from this graph is plotted versus analyte concentration (i.e d(dR/dT)/dR vs C), $kass$ is obtained from the slope of the line. The dissociation rate constant, $kdiss$, is obtained during the decrease in response with time after analyte injection is discontinued. Specifically, $kdiss$ was obtained from the slope of the line in a plot of $\ln(Rt1/Rtn)$ vs time. The affinity constants were calculated from K_D = kdiss/kass. Variance for $kass$ is standard error of the linear regression plot, and for $kdiss$ values are the mean ± range of 3 or more independent injections.
(§3) Data was analyzed using the BIA-evaluation software (Pharmacia Biosensor). The association rate constant, $kass$, was calculated by first plotting the change in response with time versus response (ie. dR/dT vs R).

Assay [2] concerns the target T2, purified human TGF-β1 (human, UniProt P01137). As to the kind of experiment: SPR (BIAcore); analyte over immobilized cytokine. As to the method:
as §1, §2, §3
On the technique in general: In SPR one partner is held on a chip, and binding of the other changes the refractive index at the surface.

In assay [3] the target is B4. In words: SPR (BIAcore); analyte over immobilized cytokine; repeated calculation. On the procedure:
as §2
(§4) Binding constants for fetuins and TRH1 peptide interactions with TGF-β and BMPs measured using the BIAcore and BIA-evaluation software (Pharmacia Biosensor). The change in response with time was plotted for each analyte concentration (ie. dR/dT vs R), and the slope of these lines were then plotted as a function of analyte concentration (i.e d(dR/dT)/dR vs C), where the slope yields $kass$. The dissociation rate constant, $kdiss$, is obtained after analyte injection is discontinued as the slope of $\ln(Rtl/Rtn)$ vs time. K_Ds are $kdiss/kass$. Variance for $kass$ is standard error of the linear regression plot, and for $kdiss$ values are the mean ± range of 3 or more independent injections.

Assay [4] deals with T2, purified human TGF-β1. The description is as above. As to the method: as §2, §4
In assay [5] the target is B4. In words: SPR (BIAcore).
Assay [6] has as its target T1, adult human fetuin/α2-HS glycoprotein. As to the kind of experiment: SPR (BIAcore); analyte over immobilized cytokine. On the procedure:
as §1, §4

Assay [7] concerns the target B3. In words: SPR (BIAcore); analyte over immobilized cytokine. On the procedure:
as §1, §2, §3

Assay [8] has as its target B3. As to the kind of experiment: SPR (BIAcore); analyte over immobilized cytokine; repeated calculation. On the procedure: as §2, §4
The target in a further assay is bovine serum albumin (bovine, UniProt P02769). As to the kind of experiment: SPR (BIAcore), BMP-2 immobilized. As to the method:
as §1

The Kd is the concentration at which binding is half-saturated. The koff is a measure of how fast the partners let go of each other. Broadly, the kon is the rate constant with which the complex forms. As to B1, the dissociation constant Kd with recombinant human BMP-2 [1] is more than 10000 nM; with purified human TGF-β1 [2] it was 520 nM; in the assay with recombinant human BMP-2 [3], more than 10000 nM; with purified human TGF-β1 [4], 1000 nM. For the same molecule, the off-rate (koff) with purified human TGF-β1 [2] is 0.0019 s⁻¹; with purified human TGF-β1 [4], 0.0023 s⁻¹. The on-rate (kon) was 3700 M⁻¹ s⁻¹ with purified human TGF-β1 [2] and 2200 M⁻¹ s⁻¹ with purified human TGF-β1 [4].

With B2, the dissociation constant (Kd) with purified human TGF-β1 [2] and with purified human TGF-β1 [4] was more than 10000 nM each time.

For the molecule B3, the “fold greater affinity than fetuin binding to TGF-β1” value with recombinant human BMP-2 [5] is approximately 100 times.

B4: the Kd in assay [6] is 51 nM; in the assay with bovine fetuin [7] it was 36 nM; with bovine fetuin [8], 27 nM. Also, the binding result with bovine serum albumin is on record as “no binding (tested: 0.22, 0.29, 0.44, 0.59, 0.88 µM)”.
